From patent US20100081620A1

Assays:
[1] = target: T1, ADAM 8 catalytic domain (mouse) (mouse) (UniProt Q05910); test: cell-based or functional assay
T1 sequence (looked up): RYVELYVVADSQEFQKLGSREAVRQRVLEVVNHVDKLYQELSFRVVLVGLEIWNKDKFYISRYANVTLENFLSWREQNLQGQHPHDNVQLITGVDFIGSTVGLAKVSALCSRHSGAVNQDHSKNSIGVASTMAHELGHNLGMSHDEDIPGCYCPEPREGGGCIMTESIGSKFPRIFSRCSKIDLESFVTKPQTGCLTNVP

[2] = target: Human ADAM10 protease containing the catalytic/disintegrin domains (human) (UniProt O14672); test: cell-based or functional assay
Sequence of Human ADAM10 protease containing the catalytic/disintegrin domains (human) (O14672 214-672 limits assumed): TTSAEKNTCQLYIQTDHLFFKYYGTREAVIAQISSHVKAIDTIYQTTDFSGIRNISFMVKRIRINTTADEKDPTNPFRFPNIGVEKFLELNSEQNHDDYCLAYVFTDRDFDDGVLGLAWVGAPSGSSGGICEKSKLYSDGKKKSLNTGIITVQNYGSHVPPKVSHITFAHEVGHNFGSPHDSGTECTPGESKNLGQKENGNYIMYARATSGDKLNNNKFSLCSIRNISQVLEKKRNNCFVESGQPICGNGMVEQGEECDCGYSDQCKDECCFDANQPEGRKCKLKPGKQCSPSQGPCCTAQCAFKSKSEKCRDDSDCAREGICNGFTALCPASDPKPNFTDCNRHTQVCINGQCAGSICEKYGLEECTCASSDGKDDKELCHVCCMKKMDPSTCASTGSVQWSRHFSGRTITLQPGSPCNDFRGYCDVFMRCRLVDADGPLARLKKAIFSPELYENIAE

[3] = target: TACE catalytic domain (human) (human) (UniProt P78536); test: cell-based or functional assay
Sequence of TACE catalytic domain (human) (human) (P78536 215-477 limits assumed): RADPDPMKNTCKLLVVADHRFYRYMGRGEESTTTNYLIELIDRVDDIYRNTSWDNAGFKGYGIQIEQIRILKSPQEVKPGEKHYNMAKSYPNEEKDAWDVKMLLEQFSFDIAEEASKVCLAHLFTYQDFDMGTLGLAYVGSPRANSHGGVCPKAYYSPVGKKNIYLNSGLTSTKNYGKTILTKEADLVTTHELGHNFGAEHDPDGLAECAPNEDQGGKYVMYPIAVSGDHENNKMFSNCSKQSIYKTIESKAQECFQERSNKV

[4] = target: Human TACE protease containing the catalytic/disintegrin domains (human) (UniProt P78536); test: cell-based or functional assay
Sequence of Human TACE protease containing the catalytic/disintegrin domains (human) (P78536 215-671 limits assumed): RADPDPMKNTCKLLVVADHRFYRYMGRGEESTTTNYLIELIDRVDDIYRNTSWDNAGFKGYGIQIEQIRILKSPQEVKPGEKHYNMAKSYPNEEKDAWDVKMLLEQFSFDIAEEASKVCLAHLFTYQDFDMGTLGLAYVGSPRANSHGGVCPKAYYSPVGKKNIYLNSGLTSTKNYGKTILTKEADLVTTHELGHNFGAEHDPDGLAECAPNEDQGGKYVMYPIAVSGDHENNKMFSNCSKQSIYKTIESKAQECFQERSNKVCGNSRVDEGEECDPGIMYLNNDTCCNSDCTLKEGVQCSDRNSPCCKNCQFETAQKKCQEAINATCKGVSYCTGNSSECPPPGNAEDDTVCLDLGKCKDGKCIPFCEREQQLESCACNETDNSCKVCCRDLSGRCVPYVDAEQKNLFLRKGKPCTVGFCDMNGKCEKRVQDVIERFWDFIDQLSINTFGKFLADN

[5] = target: MMP 13; test: enzyme inhibition, fluorescent peptide substrate
[6] = target: MMP 14; test: enzyme inhibition, fluorescent peptide substrate
[7] = target: MMP 1; test: enzyme inhibition, fluorescent peptide substrate
Sequence of MMP 1 (P03956 100-469): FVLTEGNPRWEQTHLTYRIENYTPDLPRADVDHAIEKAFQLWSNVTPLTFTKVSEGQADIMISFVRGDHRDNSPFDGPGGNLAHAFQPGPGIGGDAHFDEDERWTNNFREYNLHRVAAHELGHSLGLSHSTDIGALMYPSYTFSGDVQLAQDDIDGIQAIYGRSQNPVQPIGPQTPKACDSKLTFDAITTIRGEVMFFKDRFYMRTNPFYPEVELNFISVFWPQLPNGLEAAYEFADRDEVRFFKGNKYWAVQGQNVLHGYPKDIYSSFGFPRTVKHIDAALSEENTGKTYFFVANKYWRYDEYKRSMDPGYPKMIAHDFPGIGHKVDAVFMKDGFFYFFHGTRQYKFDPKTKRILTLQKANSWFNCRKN

[8] = target: MMP 2; test: enzyme inhibition, fluorescent peptide substrate
Sequence of MMP 2 (P08253 110-660): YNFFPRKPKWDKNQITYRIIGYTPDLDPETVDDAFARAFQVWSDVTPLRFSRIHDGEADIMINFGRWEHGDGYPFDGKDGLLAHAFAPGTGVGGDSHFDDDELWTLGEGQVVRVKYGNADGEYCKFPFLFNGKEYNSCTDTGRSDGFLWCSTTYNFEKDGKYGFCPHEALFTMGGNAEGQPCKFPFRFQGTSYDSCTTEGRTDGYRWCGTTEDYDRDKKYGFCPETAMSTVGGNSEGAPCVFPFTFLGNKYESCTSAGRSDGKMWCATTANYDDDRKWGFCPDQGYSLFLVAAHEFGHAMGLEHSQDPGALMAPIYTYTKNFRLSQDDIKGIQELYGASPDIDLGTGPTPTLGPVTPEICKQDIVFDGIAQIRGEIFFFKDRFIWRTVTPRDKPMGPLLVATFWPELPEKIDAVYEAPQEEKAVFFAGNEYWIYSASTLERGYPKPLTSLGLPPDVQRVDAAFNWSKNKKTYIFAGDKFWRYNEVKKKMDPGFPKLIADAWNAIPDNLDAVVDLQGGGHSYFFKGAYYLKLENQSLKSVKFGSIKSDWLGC

[9] = target: MMP 3; test: enzyme inhibition, fluorescent peptide substrate
Sequence of MMP 3 (P08254 100-477): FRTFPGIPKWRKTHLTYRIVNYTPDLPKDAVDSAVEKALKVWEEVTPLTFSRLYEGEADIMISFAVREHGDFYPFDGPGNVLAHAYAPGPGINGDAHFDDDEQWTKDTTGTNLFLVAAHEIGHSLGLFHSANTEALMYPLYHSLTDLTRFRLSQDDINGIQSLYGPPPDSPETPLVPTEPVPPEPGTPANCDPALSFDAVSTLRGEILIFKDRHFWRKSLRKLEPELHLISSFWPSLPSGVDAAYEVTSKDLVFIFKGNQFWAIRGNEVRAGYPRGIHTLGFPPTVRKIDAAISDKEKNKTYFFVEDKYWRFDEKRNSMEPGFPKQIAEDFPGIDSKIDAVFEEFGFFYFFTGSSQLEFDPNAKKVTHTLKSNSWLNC

[10] = target: MMP 9; test: enzyme inhibition, fluorescent peptide substrate
Sequence of MMP 9 (P14780 107-707): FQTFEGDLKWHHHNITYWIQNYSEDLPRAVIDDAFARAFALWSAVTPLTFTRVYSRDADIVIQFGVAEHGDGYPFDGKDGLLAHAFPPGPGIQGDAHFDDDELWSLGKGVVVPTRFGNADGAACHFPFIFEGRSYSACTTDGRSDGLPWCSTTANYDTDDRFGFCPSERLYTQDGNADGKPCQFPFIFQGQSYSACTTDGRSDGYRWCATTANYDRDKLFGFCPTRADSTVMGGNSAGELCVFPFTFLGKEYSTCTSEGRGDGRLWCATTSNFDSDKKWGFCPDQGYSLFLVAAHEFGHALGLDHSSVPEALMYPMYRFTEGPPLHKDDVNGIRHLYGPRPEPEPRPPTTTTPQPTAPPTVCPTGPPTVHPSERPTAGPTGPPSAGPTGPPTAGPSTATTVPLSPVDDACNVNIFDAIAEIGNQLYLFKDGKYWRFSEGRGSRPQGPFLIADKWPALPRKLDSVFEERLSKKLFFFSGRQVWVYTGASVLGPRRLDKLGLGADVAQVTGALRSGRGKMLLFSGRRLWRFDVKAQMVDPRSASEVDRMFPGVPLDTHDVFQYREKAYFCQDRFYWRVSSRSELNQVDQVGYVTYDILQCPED

B1: Pro ADAM 17 (mouse) (protein, UniProt Q9Z0F8 18-214, looked up, not shown: small tags and cut ends)
chain: PRPPEEAGSGSHPRLEKLDSLLSDYDILSLANIQQHSIRKRDLQSATHLETLLTFSALKRHFKLYLTSSTERFSQNLRVVVVDGKEESEYSVKWQNFFSGHVVGEPDSRVLAHIGDDDVTVRINTDGAEYNVEPLWRFVNDTKDKRMLVYKSEDIKDFSRLQSPKVCGYLNADSEELLPKGLIDREPSEEFVRRVKR
- prodomain inhibition of enzyme activity (percent) [1]: 17%
- prodomain inhibition of enzyme activity (percent) [2]: 11%
- prodomain inhibition of enzyme activity (percent) [3]: 37%

B2: Pro ADAM 8 (mouse) (protein, UniProt Q05910 18-186, looked up, not shown: small tags and cut ends)
chain: GPPLPHVKQYEVVWPRRLAASRSRRALPSHWGQYPESLSYALGTSGHVFTLHLRKNRDLLGSSYTETYSAANGSEVTEQLQEQDHCLYQGHVEGYEGSAASISTCAGLRGFFRVGSTVHLIEPLDADEEGQHAMYQAKHLQQKAGTCGVKDTNLNDLGPRALEIYRAQP
- prodomain inhibition of enzyme activity (percent) [1]: 9%
- prodomain inhibition of enzyme activity (percent) [2]: 25%
- prodomain inhibition of enzyme activity (percent) [4]: 13%
- prodomain inhibition of enzyme activity (percent) [3]: 50%

B3: wt ProADAM 10 23-213 (C-terminal His tag) (protein)
chain: NPLNKYIRHYEGLSYNVDSLHQKHQRAKRAVSHEDQFLLLDFHAHGRQFNLRMKRDTSLFSDEFKVETSNKVPDYDTSHIYTGHIYGEEGSFSHGSVIDGRFEGFIKTRGGTFYIEPAERYIKDRILPFHSVIYHEDDINYPHKYGPQGGCADHSVFERMRKYQMTGVEEGARAHPEKHAASSGPELLRKKHHHHHH
- Ki [5]: > 2000 nM
- Ki [6]: > 2000 nM
- Ki [7]: > 2000 nM
- Ki [8]: > 2000 nM
- Ki [9]: > 2000 nM
- Ki [10]: > 2000 nM
